The values below come from patent US20110086089A1, “USE OF P27KIP1 FOR THE PREVENTION AND TREATMENT OF HEART FAILURE” (UNIVERSITY HEALTH NETWORK, priority 2008, published 2011).

Marks after values point to notes of the source that are not given here.

Experiment [1] has as its system p27 phosphorylation at S83 and T187 in cardiomyocytes. The experiment can be described thus: p27 phosphorylation at S83 and T187 in Ang II-treated cardiomyocytes (Western blot). In kind it is cell-based, rat. Conditions: Ang II 4 h; lentiviruses 72 h; DMAT 20 μM pre-incubated 30 min; TAT-conjugated CK2-alpha-prime 2.5 μg/ml 1 h. Here is the method: FIG. 2 is a series of graphs and blots showing Ang II triggers CK2-alpha-prime-dependent phosphorylation of p27 on S83 and T187 in cardiomyocytes. (A) p27 is a substrate of CK2-alpha-prime. […] In vitro kinase assays employing recombinant wt.p27 (1 μg) or phosphorylation site mutants of p27 as substrates were incubated with recombinant CK2-alpha-prime/beta (200 ng). Aliquots of the reaction mixtures were resolved on SDS-PAGE, electrotransferred to nitrocellulose membranes, and the amount of incorporated radioactive [^32P}-label into p27 was quantified with a PhosphorImager and ImageJ software. Individual membranes were probed with anti-CK2-alpha-prime, anti-p27 (input), or phosphorylation site specific antibodies to p27. […] Samples were resolved on SDS-PAGE, transferred to nitrocellulose-membranes, and the amount of incorporated radioactive label into histones was quantified with a PhosphorImager and ImageJ. The input amount of each CK2-alpha-prime and p27 protein used in the kinase reaction mixtures was monitored by immunoblot analysis employing anti-His. […] Biochemically fractionated extracts corresponding to 4×10^5 cells per lane were analyzed by immunoblotting employing antibodies as indicated on the left. […]
(A western blot detects proteins with antibodies after separation by electrophoresis.)

In experiment [2] the test system is WT mice. The experiment can be described thus: Chronic Ang II infusion for 14 days with daily TAT.protein injection, WT mice. To be noted: for FS / LVEDD / LVEF / LVESD / PWD: WT, echocardiography at 14 days. In kind it is in vivo. The text has this:
FIG. 5 is a series of graphs, blots and cell stainings showing CK2-alpha-prime is important for Ang II action in vivo. […] Transduction of recombinant active CK2-alpha-prime evokes cardiac hypertrophy in the absence of Ang II. (A) Heart-weight corrected for body-weight (left panel) and Masson-stain of myocardial cross sections (right panel). Mean±s.e.m., n=6-8. #P<0.01 vs sham saline. *P<0.01 vs sham saline. Scale bar, 2 mm. (B) Cell size analysis of adult cardiac myocytes isolated from 8-weeks-old mice. One hundred cells from three different mice were analyzed per group. Mean±s.e.m. #P<0.01 vs sham saline. *P<0.01 vs sham saline. **P<0.01 vs Ang II. (c) Determination of ANF/BNP mRNA levels by qRT-PCR. Mean±s.e.m., n=6-8. *P<0.05 vs sham saline. **P<0.05 vs Ang II. #P<0.05 vs sham saline. (D) Visualization of ectopic TAT-conjugated p27deltaPi by indirect immunofluorescence microscopy employing anti-His tag antibodies. Scale bar, 200 μm. (E) Left ventricular extracts (2-3 mg) were subjected to anti-CK2-alpha-prime immunocomplex kinase assays employing histone H1 substrate. Aliquots of kinase reactions were subjected to immunoblotting using antibodies as indicated on the left (top and middle panel). Levels of endogenously expressed or transduced proteins in total left ventricular heart tissue samples (60 μg) were analyzed by immunoblotting (bottom panel). Experiments to (E) were done twice with similar results.
To define whether CK2-alpha-prime -directed p27 turnover plays a role in vivo, the inventors chronically infused Ang II^72 and intraperitoneally injected recombinant TAT-conjugated CK2-alpha-prime and p27 variants in WT and p27^−/− mice (FIG. 9). […] These mice had normal LVEDD and LVESD when compared to Ang II-infused littermates (Table 3). […] CK2-alpha-prime activity and p27 destabilization were similar to their non-transduced Ang II-treated siblings (FIG. 5E).
(§1) Spontaneously beating cardiomyocytes from heart ventricles of neonatal rats were cultured and subjected to treatment with angiotensin II (Ang II). DMAT (2-dimethylamino-4,5,6,7-tetrabromo-1H-benzimidazol), DMSO, lactacystin and LLM were obtained from Calbiochem. Ang II was purchased from Sigma. Animal usage was in accordance with approved institutional animal care guidelines. Age-matched male WI C57BL/6 and p27^−/− mice were used in this study. For results shown in FIGS. 1 to 9: Ang II was chronically infused subcutaneously by osmotic pumps (model 2000, Alzet) at a dose of 1.4 μg/kg per minute for 14 days. TAT.proteins (10 mg/kg) were injected intraperitoneally once daily for 14 days. For results shown in FIGS. 10 to 12: Ang II was chronically infused subcutaneously by osmotic pumps (model 2000, Alzet) at a dose of 0.7 μg/kg per minute for 16 days. TAT.proteins (20 mg/kg) were injected intraperitoneally once daily for 8 days starting at day 8. Thoracic aortic banding (TAB) and pressure gradient measurements were performed as described^39.

For experiment [3], the system named is p27 KO mice. The experiment can be described thus: Chronic Ang II infusion for 14 days with daily TAT.protein injection, p27 KO mice. In kind it is in vivo. Conditions: p27 KO, echocardiography at 14 days. As to the method: (A) Heart-weight corrected for body-weight (left panel) and Masson-stain of myocardial cross sections (right panel). Mean±s.e.m., n=6-8. *P<0.01 vs sham saline. **P<0.01 vs Ang II. Scale bar, 2 mm. (B) Cell size analysis of adult cardiac myocytes isolated from 8-weeks-old mice. One hundred cells from three different mice were analyzed per group. Mean±s.e.m. *P<0.01 vs sham saline. **P<0.01 vs Ang II. (C) Determination of ANF/BNP mRNA levels by qRT-PCR. Mean±s.e.m., n=6-8. *P<0.01 vs sham saline. **P<0.01 vs Ang II. (D) CK2-alpha-prime-dependent kinase activity determined in whole left ventricular tissue samples. One typical result of two independent experiments is shown. (E, F) Ang II action induces apoptosis in p27^−/− mice. (E) Quantification of apoptotic cardiac myocytes (white arrowheads) by in situ TUNEL and GATA4 immunofluorescence histochemistry of left ventricular specimen. Mean±s.e.m., n=4. *P<0.01 vs sham saline. **P<0.05 vs sham saline. #P<0.01. (F) Determination of caspase 3 activity in total left ventricular heart tissue samples. Mean±s.e.m., n=4. *P<0.05 vs sham saline. #P<0.01. (G) Model for CK2-alpha-prime-dependent regulation of cardiac hypertrophy through phosphorylation of p27. Hypertrophic signals stimulate CK2-alpha-prime kinase that phosphorylates p27 at S83 and T187. Phosphorylation of p27 impairs its ability to bind to and inhibit […] activity. Subsequently, p27 is proteasomally degraded allowing hypertrophic growth to proceed.
Next, the inventors examined the effect of transduced proteins on cardiac hypertrophy in p27^−/− mice. Elimination of p27 gene function in these animals completely abrogated the ability of kd.CK2-alpha-prime to block cardiac hypertrophy (FIG. 6A-D). In contrast, hypertrophic responses to Ang II were abolished by p27deltaPi injections. Thus, reconstitution of p27 protein abundance in the myocardium of p27^−/− mice was accompanied by inhibition of Ang II action. Moreover, the inventors observed a marked increase in the number of TUNEL-positive cardiomyocyte nuclei in Ang II-infused p27^−/− mice (FIG. 6E,F) as compared to the WT controls. […] This was in direct contrast to the effect seen by ectopic kd.CK2-alpha-prime consistent with the inventors' previous work showing that CK2 is cardioprotective^73,74.
as §1

[4] abbreviates: Ang infusion 1.4 μg/kg per minute 14 days, TAT.protein 10 mg/kg i.p. once daily.
[5] abbreviates: saline infusion, TAT.protein 10 mg/kg i.p. once daily 14 days.
[6] abbreviates: saline infusion, TAT.protein 10 mg/kg i.p. once daily 14 days, 8-weeks of age.

B1: CK2-α′: recombinant active TAT-conjugated CK2-alpha-prime protein with NES of HIV-1 Rev (protein)
chain: MPGPAAGSRARVYAEVNSLRSREYWDYEAHVPSWGNQDDYQLVRKLGRGKYSEVFEAINITNNERVVVKILKPVKKKKIKREVKILENLRGGTNIIKLIDTVKDPVSKTPALVFEYINNTDFKQLYQILTDFDIRFYMYELLKALDYCHSKGIMHRDVKPHNVMIDHQQKKLRLIDWGLAEFYHPAQEYNVRVASRYFKGPELLVDYQMYDYSLDMWSLGCMLASMIFRREPFFHGQDNYDQLVRIAKVLGTEELYGYLKKYHIDLDPHFNDILGQHSRKRWENFIHSENRHLVSPEALDLLDKLLRYDHQQRLTAKEAMEHPYFYPVVKEQSQPCADNAVLSSGLTAAR
modifications: left off: small tags and cut ends
In the case of B1, the “S83/T187 phosphorylation of p27 in cardiomyocytes” value in experiment [1] is listed as “rescued the detrimental impact of siCK2-alpha-prime on p27 phosphorylation”. Moreover, the “cardiac hypertrophy in the absence of Ang II” value in experiment [2] (WT mice, saline, TAT.protein 10 mg/kg i.p. once daily) is on record as “did induce cardiac hypertrophy”. Besides, in experiment [2] (setting [4]), the FS is on record as 55 ± 3.9* %, the LVEDD is 4.6 ± 0.1* mm, the LVEF is 82 ± 2.8* % and the LVESD is on record as 2.4 ± 0.1* mm. Besides, in experiment [2] (setting [4]), the PWD is 1.3 ± 0.1* mm. Moreover, in experiment [2] (setting [5]), the LVEDD is on record as 4.5 ± 0.2^# mm, the LVEF is recorded as 83 ± 3.1^# %, the LVESD was 2.4 ± 0.2^# mm and the PWD is recorded as 1.3 ± 0.2^# mm. Also, in experiment [2] (setting [6]), the FS was 52 ± 2.0^# %.

B2: p27ΔC: TAT-conjugated p27 deficient in binding to CK2-alpha-prime (p27.1-86), serving as negative control (protein)
chain: MSNVRVSNGSPSLERMDARQADHPKPSACRNLFGPVDHEELTRDLEKHCRDMEEASQRKWNFDFQNHKPLEGKYEWQEVEKGSLPE
modifications: left off: small tags and cut ends
As for B2, the “cardiac hypertrophy to Ang II (heart/body weight ratio, myocyte area, ANF/BNP mRNA)” value in experiment [2] (Ang II-treated WT mice, TAT.proteins 10 mg/kg i.p. once daily 14 days) was “No anti-hypertrophic effect”. In experiment [2] (setting [4]), this molecule came in with an FS of 54 ± 3.2%, an LVEDD of 4.5 ± 0.2 mm, an LVEF of 81 ± 3.5% and an LVESD of 2.3 ± 0.1 mm. In addition, the PWD in experiment [2] (setting [4]) is listed as 1.2 ± 0.2 mm. In experiment [2] (setting [5]), this molecule displayed an LVEDD of 3.6 ± 0.2 mm, an LVEF of 69 ± 2.1%, an LVESD of 1.4 ± 0.1 mm and a PWD of 0.7 ± 0.1 mm. Moreover, in experiment [2] (setting [6]), the FS worked out at 41 ± 1.8%. In experiment [3] (setting [4]), this molecule returned an FS of 56 ± 3.9%, an LVEDD of 4.6 ± 0.2 mm, an LVEF of 82 ± 3.8% and an LVESD of 2.3 ± 0.2 mm. In addition, in experiment [3] (setting [4]), the PWD amounted to 1.1 ± 0.1 mm. In addition, in experiment [3] (setting [5]), the FS was 42 ± 2.4%, the LVEDD was 3.7 ± 0.2 mm, the LVEF was found to be 73 ± 2.6% and the LVESD is reported as 1.3 ± 0.1 mm. In experiment [3] (setting [5]), the PWD is 0.6 ± 0.2 mm.
